The values below come from PMC11981803.

The target of test [1] is transmembrane domain of SaeS (SaeS TM), reconstituted into DMPC/DHPC bicelles (Staphylococcus aureus). In words: SDS-PAGE.
Test [2] has the same target. In words: SPR.

Chain of transmembrane domain of SaeS (SaeS TM), reconstituted into DMPC/DHPC bicelles (Staphylococcus aureus) (Q2FIT5 whole entry, the tested form may be a part): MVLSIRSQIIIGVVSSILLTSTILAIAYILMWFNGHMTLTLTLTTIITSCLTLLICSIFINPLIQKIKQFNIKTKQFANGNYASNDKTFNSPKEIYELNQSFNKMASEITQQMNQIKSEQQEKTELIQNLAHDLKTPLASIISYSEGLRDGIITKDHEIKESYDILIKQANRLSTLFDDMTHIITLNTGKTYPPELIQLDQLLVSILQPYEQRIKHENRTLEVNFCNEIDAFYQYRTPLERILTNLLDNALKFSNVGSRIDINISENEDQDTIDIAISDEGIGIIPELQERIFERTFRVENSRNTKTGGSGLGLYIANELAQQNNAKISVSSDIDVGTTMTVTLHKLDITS

In turn, “transmembrane domain of SaeS (SaeS TM), reconstituted into DMPC/DHPC bicelles (domain or fragment)” showed a stoichiometry N in test [1] of 2.

In test [2], “Human neutrophil defensin-1 (from UniProt P59665 65-94) (peptide)” yielded a Kd of 1.07 µM, a koff of 0.0186 s⁻¹ and a kon of 17400 M⁻¹ s⁻¹.
